The text below walks through data of article doi:10.1101/2024.10.15.618347.

This data set concerns the target YTHDC1 YTH domain (UniProt Q96MU7 345-509). The data set is described as follows: EMSA.

With AACUUAAUGUUUUUGCAUUGGACUUUGAGUU (ssRNA, m6A at position 22 (GGACU to GG(m6A)CU)) [MALAT1 oligo, m6A], the binding result is on record as “binds”.
